Assay: soluble on expression in E. coli; label from the status in PepcDB or PDB records

Sequence | soluble on expression in E. coli
MGSSHHHHHHGGTGENLYFQGGSGGTCPSISQSEVGIVETCGRFSYTADPGIHCLWCGSVLVRRVTLRLQEYELKVESKTKDNVFVTLSLVIQYQVSPDKLAEVYYACDSSLQCMRDYVLNSIRAKIPLYKLEALYVERGTISQQLKDEVDAIIGTYGIEIVSALISDIDPGAEITKAMNEVQKFQRLRVASVDAAETEKLKRVRAAEARCEARRLSGEGLAEQRKAIVAGLMHSIEDVQSEVRDLTSNDATNMLLMNQYYDTLQAIAANSSSSVIMLESNGGLEKVAAQLRQGVTHMMR | not soluble
MGSDKIHHHHHHMKKVAIVILNWNGRKLMEEFLPSVVSNSPEWAEVIVADNGSTDDSIEMLKAKFPTVGIISFNQNYGFAEGYNQALKRLDHEYCVLLNSDVEVTPNWLDAPIATLDSDPSIACVQPKIRAQRNKEYFEYAGAAGGYIDKYGYPFCRGRILHIVEKDEGQYDTPAYILWATGACLFVRTATYKEVGGLDAGFFAHQEEVDMCWRLRSRGYRLVCVPQSIVYHVGGATLNAESPRKTFLNFRNSLLMLYKNSREADLKHVMRIRFWLDYIAAAKFLMEGHIQNAKAVYEARKAYHQLKPEYAPKRKENLEKSTLSTIPELMRDSLILAFYLKGKRTFKAIKDRR | not soluble
MGSDKIHHHHHHMTDISWEMNDQTIVRKTDKIARQDTLPDLTLKKVKQGDRMRFDAHVNVDSMAEGQHLKRVTIFSNVPGGGTWELISDEGVAVGGRGTAPSPQMYFAAGLGLCLMSHVEMLAKSGEFEITSARLEQRSTWTTTMDLGAVAPANIYGKGEHMQMNLIIESPEPTPKIAEFIAYCRQACMALQTVAAATPVATGLYLNGAHIGDVGGTGPFAKVA | not soluble
RKIFTNKCERAGCRQREMMKLTCERCSRNFCIKHRHPLDHDCSGEGHPTS | soluble
MGSDKIHHHHHHMGDLPGLVRLSIALRIQPNDGPVFYKVDGQRFGQNRTIKLLTGSSYKVEVKIKPSTLQVENISIGGVLVPLELKSKEPDGDRVVYTGTYDTEGVTPTKSGERQPIQITMPFTDIGTFETVWQVKFYNYHKRDHCQWGSPFSVIEYECKPNETRSLMWVNKESFL | not soluble
NKNFWLGVRGNFTYATGKYEYVEEPYRPYPWLSHIGKRIEQSYGLVAERLFIDEEDIANSPVQTYGEYMPGDIKYKDINNDGIINDEDIVPIGFAKSPEIVYGFGVSMGYKNFDISCFFQGAARSSFFINSKATNPFMQMDLGGNNLNGMMQAYADDYWSESNRNIYATFPRLSTTDIANNNRNSTWWLRDGSYLRLKSVEIGYTLPKRLTSHLGMSNLRIYASGLNLFAWNRFKLWDVEQGNDGMQYPIQAVYNFGINLSF | not soluble
MDGLFEFCQLSTGGSVAGAVKLNRQQTDMAVNWAGGLHHAKKYEASGFCYVNDIVLAILELLKYHQRVLYIDIDIHHGDGVEEAFYTTDRVMTVSFHKYGEYFPGTGDLRDIGAGKGKYYAVNFPMCDGIDDESYGQIFKPIISKVMEMYQPSAVVLQCGADSLSGDRLGCFNLTVKGHAKCVEVVKTFNLPLLMLGGGGYTIRNVARCWTYETAVALDCEIPNELPYNDYFEYFGPDFKLHISPSNMTNQNTPEYMEKIKQRLFENLRMLPHAPGVQMQAIPEDAVHEDSGDEDGEDPDKRISIRASDKRIACDEEFSDSEDEGEGGRRNVADHKKGAKKARIEEDKKETEDKKTDVKEEDKSKDNLEHHHHHH | soluble
MILVNRETRVLVQGITGREGQFHTKQMLSYGTKIVAGVTPGKGGMEVLGVPVYDTVKEAVAHHEVDASIIFVPAPAAADAALEAAHAGIPLIVLITEGIPTLDMVRAVEEIKALGSRLIGGNCPGIISAEETKIGIMPGHVFKRGRVGIISRSGTLTYEAAAALSQAGLGTTTTVGIGGDPVIGTTFKDLLPLFNEDPETEAVVLIGEIGGFDEEEAAAWVKDHMKKPVVGFIGGRSAPKGKRMGHAGAIIMGNVGTPESKLRAFAEAGIPVADTIDEIVELVKKALG | soluble
MIKVVGLGPGSKNALTLGTLEAVKNSQNIFFRTKKHPVVEYFDEIGIKYSTYDDKYETGESFDEVYDFIARDLVSKAKELKDIVYAVPGHPLVAEKSVQILIELCEKENIKVDIVPAVSFIDALMESLKIDPVKGLKIVDAFDIKNQILDKRLGIVITQVYNSFIASDVKLALLEYYKDDTEIYFVRAAGIENEESVRKIPLYELDRQSDIDYLTSVYVPCDINNNKDFYDLLNIMEILRGENGCPWDREQSHDTIKRALIEECYEAVEAIEKNDDDMMVEELGDVLFQVVFHAKIGKDEGYFNINDVISGICNKMIERHPHVFKNEQIKNSTEVLQKWDEIKRKQQDLNSYTEEMKHIPKILPALIRAEKVQKKASKVGFDFRNVEEALDKVLEETREVKDVYKGIIRDRIAEEVGDLIFSVVNIARLLDIDSEFALNYTIDKFIKRFYYIEKAAKDKNLKIESMSLEEMNALWDEAKLKIQ | not soluble
MGSDKIHHHHHHMRRDTFAGRRTQQPACQIHRFARTDKCYRHQKNPAERRHFGLSQCPHRESIVFVYTKMYILLMDVDRVQVRAFRANIAEYLEQALQGQRIVIERHGGPVAALVPLADLYQITRKEKAMGHRIALNNVSGGEGKTFLTFHLAFALADLGFRVAVLDCDPQASLTKRFGLHDEEGAHQSGAETILPVFEVDDDPALPSPVTVEGIDVWPANRQLIDADTRIMTNMMRLGNLGEALDRIQDQYDFILLDTRPNVSPLLTASTAAARLFLVPIGAHKGLENLDELLRLVKLARKQDRSARIAFFIPNKVTSTRMGKNVLQSISAYTEVAPISPPVRQATIGPEAELFRTGITRHAPKSPLAGDIRTLANALVKATEQVEDAQ | not soluble
MGHHHHHHSHMEETRAGRYIVRAGSGGQTEDTASGAESVLATLAAVRTRRRSVVCDGPPGSPTDSARHMSDLASLALTAEFGLGCLEAYVRINAGQVLPVVWPPGWNLVLQEIETDEDFKPEDVKAWSHYLCCQTRLAFVGRFVNEGVLSPDQQKKTAVCLISDEGYVFCYVREDTAVYYLARNLMEFARVGLRAVETLHCMRYLTSSLVKRYFRPLLRAWSLGLDTMARFIIRHHGQFMPLTYPPGTELRLCNLRCFENSVEGGHLLRNIKTAFGMRVLGLGTVSLKGENAPFPHLRWPVDLIPIVVAYTGAVYACDVRDDRYIRVGDNLNTFMCLGLNLLFENRRFSGHNGIYDRVPDCPKGRQHR | not soluble
MSLVMDYEGFKKEIFKLTGIDLGSYKEKQMKRRLDSLISKNNFSGYKTYIEALKTDKKLFNEFINYMTINVSEFYRNPEQWEKLKNIILPSLLEKNSNPKIWSAACSSGDEPYTLVMILNEFLPLNKIKIIATDIDAEILVKAKNGLYTEKSIANLPKKYVEKYFKVDGDVYAINQEVKNCVEFSKHNLLADPYPKNCDLIVCRNVLIYFTEEAKAEIYKKFNRALKTGGVLFVGSTEQIILYNLYNFKPIQTFFYQKEKEGHHHHHH | soluble
MGSDKIHHHHHHMLVEHDISDVRVGMYIIEITVPKNKFRLAKQGWLDNERIIDALKSKSVEKVLIDASKTRIVADQNATTPSPSVATPSVTTKKGTKTSSESVKPKAASVRTKYQFNQEVIKAKQVFAESKAIQAKLFHNAQRGLPLEMESVCKITSESTDLIFNNPNALACVLNIRNKDEYLLEHSVSVSILMTMFALYLKIDRDIVNQLAIGAFLHDVGKIMVPDNILNKPGKLTDDEFFVMKSHARHSVSIMRKTPGISAISMEVAGQHHEKLNGKGYPLGLKGDKISLYGRMSSICDIFDALTATRCYKQGYPQVKCFGILRKLAENNELDIDLVDKFIKCMGVYPVGAVVQLDSNRLAIVESHNIADPIRPNVRPFYRLDPKLFEKGLDVDLSSAADEQIVKCVRADDFELDMQQIIEFLAQEA | not soluble
MHHHHHHSSGRENLYFQGNFDYMFKLLIIGNSSVGKTSFLFRYADDTFTPAFVSTVGIDFKVKTVYRHEKRVKLQIWDTAGQERYRTITTAYYRGAMGFILMYDITNEESFNAVQDWATQIKTYSWDNAQVILVGNKCDMEEERVVPTEKGQLLAEQLGFDFFEASAKENISVRQAFERLVDAICDKMSDS | soluble
MNGDVQSVIRGYLERAQVAKTMSDAGRWNEAGDLLRQLMTDVKSCKISASNRDEHDARNTFLRALEANLKLVQQNVRDEDDLHEAMTRQSGSPEPPADPDVWSKPSPPLPSSSKFGATKKGVGAAGPRPREISKSTSSMSTNPADVKPANPTQGILPQNSAGDSFDASAYDAYIVQAVRGTMATNTENTMSLDDIIGMHDVKQVLHEAVTLPLLVPEFFQGLRSPWKAMVLAGPPGTGKTLIARAIASESSSTFFTVSSTDLSSKWRGDSEKIVRLLFELARFYAPSIIFIDEIDTLGGQRGNSGEHEASRRVKSEFLVQMDGSQNKFDSRRVFVLAATNIPWELDEALRRRFEKRIFIPLPDIDARKKLIEKSMEGTPKSDEINYDDLAARTEGFSGADVVSLCRTAAINVLRRYFRYDTKSLRGGELTAAMESLKAELVRNIDFEAALQAVSPSAGPDTMLKCKEWCDSFGAM | not soluble
MDPFDRPKNDNDPFEDALKRCHKILEKLDCPFVTGKEKDLDESDDMTENEDHDEMANEDDGIPSNEKKVETRKMDCTSGQLLAPKLPEKAESISSASESSEDSESVAILKYTVRTCYAIWKKRQKNSEIALKGLMIVLELCLSQPSARDDAFSALLETLGYNTVTFWKAVVPQIYNSDLSYATQYREALLFSLVLYDVNHSKNRLRELYAAVPGVRQSMLGIRAKQFGERYRHLQMKIARSRASSRMSSKMGSEENLPAMASMMNDVVFDEEPHTQSPLVDMSHDKQRVINVSNAPPVSISRKTSGSWEIKQGSGGLVACVDPVMSADKKNIWLSNLGVNMQEELKEHSTSTNSLGLPLIKQACAGEVFCVLERNEKKEELTPKQQAVESDMSLLSVLNTYNKHSYQLNPVVVNQDDYNTYYGGISNGLLWPALHNLPQYISPCFDDPELLREQWCAYVRVNYLFAINAARNSRAQDFIWIHDYHLMLCGQIMRSLESSLDIGFFIHIPFQPPANFMTKYKTVADPIMRALLRFTKVGFQTSRDRDTFVKLVAKHIKRTKIEYDSRLDRYTIEHDGWTCSLGVFPVSIKIADFVNIAKNPQTIIEAEEIKKQIMGRSADGGQLFFSVERFDYTKGISEKLRAWQRYFEKYPDRIGKDVLFQVAVTNRRSVDSYRQYQDDVLAVADLINQKFKSEDYPEWKPVIFETDGLPRTRLIAHYLAMDIGVVTPSKDGMNLVAKEMLVCNPTASLVLSTGAGTEVQLSNAQFYSEQEGKCYHRVEEISNTEAFADNFFAAATESKETRTKHGEKINQFLCVHDIDEWSDQFLDPKWTHEVISQCEVKQLGQFYGLMSRTAQVRRQIVECVLKGLPIRPHFRYSLENAKNSLESSCKSGTKLSLEADEESGEEKGFEITYDIHDELSEMEKDLAFLAFIQSDEYENAEEFIKTLGSFYEGGPVLFKNEVKQAAEMLQQGIHYNTFFTDRDGTLKSYACSYPTSVQPAYSAVIQAQFARRCATFCAIVTTAPLLHTGILEVATIPEGYYAYGASAGREWYLNPAQQFKDRSFSAIDLNLMNKVFDIIEELLERPEFRIFKWIGSGIQKHCGHITIAKQDVNGTIPSRKVIRLYEQLVKIVNDFDPNGTTLTMRESDLDFKIYVKAKLKGRIFNKGHGIRLVRERLKPNMSKGNCLVCGDNESDIPMLEECLKLAGSKVYTIWVTADTNLQEKVTQLCDRFSCSNIHFVSCPQVLLGAMAYATAHTLVDERNRKLDYYYDSDTPMDQEESSTLGASLGTSFGN | not soluble

Source: the DeepSol protein solubility set
